Measurements from the supplement of paper PMC7877785.
± gives the uncertainty stated by the source.

Assay: self-splicing fitness, log relative to wild type (ln ratio); higher = more splicing; Tetrahymena group I intron in knt gene, E. coli kanamycin selection, DiMSum; sequences stand for … in CUCUCU…GGAGGGAAAAGUUAUCAGGCAUGCACCUGGUAGCUAGUCUUUAAACCAAUAGAUUGCAUCGGUUUAAAAGGCAAGACCGUCAAAUUGCGGGAAAGGGGUCAACAGCCGUUCAGUACCAAGUCUCAGGGGAAACUUUGAGAUGGCCUUGCAAAGGGUAUGGUAAUAAGCUGACGGACAUGGUCCUAACCACGCAGCCAAGUCCUAAGUCAACAGAUCUUCUGUUGAUAUGGAUGCAGUUCACAGACUAAAUGUCGGUCGGGGAAGAUGUAUUCUUCUCAUAAGAUAUAGUCGGACCUCUCCUUAAUGGGAGCUAGCGGAUGAAGUGAUGCAACACUGGAGCCGCUGGGAACUAAUUUGUAUGCGAAAGUAUAUUGAUUAGUUUUGGAGUACUCGUGGUCG
In short: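 Six replicate transformations of E. coli BL21(DE3) with a pET-22b(+) library were grown overnight at 37°C or 30°C. The library randomised all eight P1ex-region intron nucleotides, the intron lying in the knt kanamycin-resistance gene, and plates were LB agar with or without 25 μg/mL kanamycin plus 100 μg/mL carbenicillin, 50 μM IPTG and 0.2% rhamnose. Pooled colonies were amplicon-sequenced on an Illumina HiSeq 2500, and fitness is the DiMSum error-weighted combination of wild-type-normalised replicate fold changes, kanamycin versus none.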

Sequence | self-splicing fitness (ln) (37 °C) | self-splicing fitness (ln) (30 °C)
GAUGAGCAAUAUUACGCCGA | -1.44 ± 0.45 | 
GAUGAGCAAUAUUACGCGAG | -0.578 ± 0.2 | -0.593 ± 0.16
GAUGAGCAAUAUUACGCGGC | -2.77 ± 0.38 | 
GAUGAGCAAUAUUACGCUCU | -2.02 ± 0.44 | -3.24 ± 0.36
GAUGAGCAAUAUUACGCUGA | -2.46 ± 0.38 | -3.11 ± 0.44
GAUGAGCAAUAUUACGCUUG | -1.07 ± 0.3 | -3.15 ± 0.39
GAUGAGCAAUAUUACGCUUU | -3.79 ± 0.33 | -3.32 ± 0.21
GAUGAGCAAUAUUACGGAGC | -0.441 ± 0.13 | -3.9 ± 0.3
GAUGAGCAAUAUUACGGCGU | -0.736 ± 0.13 | -0.735 ± 0.11
GAUGAGCAAUAUUACGGCUC | -1.12 ± 0.32 | -0.914 ± 0.26
GAUGAGCAAUAUUACGGGCU |  | -2.22 ± 0.4
GAUGAGCAAUAUUACGGGUU | -2.6 ± 0.27 | -2.39 ± 0.17
GAUGAGCAAUAUUACGGUCA | -0.516 ± 0.19 | -3.49 ± 0.47
GAUGAGCAAUAUUACGGUGG | -1.73 ± 0.14 | -4.41 ± 0.23
GAUGAGCAAUAUUACGUACA | -0.48 ± 0.13 | -2.09 ± 0.16
GAUGAGCAAUAUUACGUACG | -1.55 ± 0.5 | -2.59 ± 0.35
GAUGAGCAAUAUUACGUUUC | -2.57 ± 0.29 | -2.77 ± 0.31
GAUUAGCAAUAUUACGACUC | 0.2 ± 0.16 | -0.282 ± 0.13
GAUUAGCAAUAUUACGAGCG | 0.534 ± 0.12 | -1.27 ± 0.12
GAUUAGCAAUAUUACGAGGG | -2.88 ± 0.29 | -2.81 ± 0.29
GAUUAGCAAUAUUACGAGUU | -0.583 ± 0.11 | -2.53 ± 0.14

Sequence | self-splicing fitness (ln) (37 °C) | self-splicing fitness (ln) (30 °C)
GAUUAGCAAUAUUACGAUAG | -1.1 ± 0.16 | -2.37 ± 0.13
GAUUAGCAAUAUUACGAUGA | 0.00201 ± 0.11 | -1.8 ± 0.13
GAUUAGCAAUAUUACGCACA | -0.721 ± 0.12 | -0.341 ± 0.17
GAUUAGCAAUAUUACGCAGU | -1.44 ± 0.19 | -3.28 ± 0.32
GAUUAGCAAUAUUACGCCUU | -0.304 ± 0.12 | -0.529 ± 0.11
GAUUAGCAAUAUUACGGACC | -0.379 ± 0.16 | -0.347 ± 0.18
GAUUAGCAAUAUUACGGAUU | -2.13 ± 0.23 | -3.17 ± 0.21
GAUUAGCAAUAUUACGGCAU | 0.24 ± 0.12 | -0.835 ± 0.11
GAUUAGCAAUAUUACGGCCG | -1.01 ± 0.19 | -1.01 ± 0.13
GAUUAGCAAUAUUACGGCGU | -0.796 ± 0.062 | -0.737 ± 0.068
GAUUAGCAAUAUUACGGGAU | -1.14 ± 0.18 | -2.76 ± 0.2
GAUUAGCAAUAUUACGGGGC | -2.97 ± 0.3 | -3.62 ± 0.49
GAUUAGCAAUAUUACGGUCC |  | -3.27 ± 0.39
GAUUAGCAAUAUUACGUAUA | -0.643 ± 0.19 | -2.65 ± 0.22
GAUUAGCAAUAUUACGUCAG | -4.23 ± 0.46 | -3.51 ± 0.35
GAUUAGCAAUAUUACGUCUU | -0.732 ± 0.088 | -0.485 ± 0.086
GAUUAGCAAUAUUACGUGUG | -1.61 ± 0.075 | -2.13 ± 0.077
GAUUAGCAAUAUUACGUGUU | -1.66 ± 0.14 | -2.85 ± 0.22
GAUUAGCAAUAUUACGUUGA | -2.25 ± 0.19 | -2.8 ± 0.22
GCAAAGCAAUAUUACGAACC | -0.43 ± 0.17 | -0.831 ± 0.13
GCAAAGCAAUAUUACGAAUA | -0.704 ± 0.13 | -2.56 ± 0.17

Sequence | self-splicing fitness (ln) (37 °C) | self-splicing fitness (ln) (30 °C)
GCAAAGCAAUAUUACGACAA | -0.838 ± 0.087 | -1.43 ± 0.1
GCAAAGCAAUAUUACGACGA | -0.213 ± 0.1 | -0.0819 ± 0.088
GCAAAGCAAUAUUACGACGG | -1.2 ± 0.2 | -2.23 ± 0.13
GCAAAGCAAUAUUACGAUCU | -0.252 ± 0.099 | -0.767 ± 0.087
GCAAAGCAAUAUUACGCAAA | -1.58 ± 0.1 | -1.95 ± 0.1
GCAAAGCAAUAUUACGCACG | -0.806 ± 0.11 | -1.83 ± 0.12
GCAAAGCAAUAUUACGCGAU | -2.73 ± 0.3 | -2.8 ± 0.23
GCAAAGCAAUAUUACGCGUA | -0.362 ± 0.071 | -0.985 ± 0.075
GCAAAGCAAUAUUACGGCCG | -1.41 ± 0.33 | -0.0405 ± 0.18
GCAAAGCAAUAUUACGGCCU | -0.967 ± 0.16 | -0.867 ± 0.12
GCAAAGCAAUAUUACGGCGG | -2.07 ± 0.2 | -1.18 ± 0.13
GCAAAGCAAUAUUACGGGGA | -1.99 ± 0.15 | -2.9 ± 0.16
GCAAAGCAAUAUUACGGUAC | 0.0303 ± 0.092 | -1.91 ± 0.086
GCAAAGCAAUAUUACGGUGC | -3.66 ± 0.27 | -2.45 ± 0.12
GCAAAGCAAUAUUACGGUGU | -2.71 ± 0.25 | -4.55 ± 0.29
GCAAAGCAAUAUUACGUGCG | -0.144 ± 0.095 | -0.856 ± 0.067
GCAAAGCAAUAUUACGUUCC | -0.849 ± 0.14 | -0.778 ± 0.082
GCAAAGCAAUAUUACGUUGG | -1.32 ± 0.09 | -1.94 ± 0.069
GCAAAGCAAUAUUACGUUUG | -3.24 ± 0.15 | -4.2 ± 0.17
